B1: SibC (structured_RNA)
RNA: GUAAGGGUAAGGGAGGAUUGCUCCUCCCCUGAGACUGACUGUUAAUAAGCGCUGAAACUUAUGAGUAACAGUACAAUCAGUAUGAUGACAAGUCGCAUCAUAACCCUUCUCCUUCAAGCCCUCGCUUCGGUGAGGGCUUU
B2: GcvB (structured_RNA)
RNA: ACUUCCUGAGCCGGAACGAAAAGUUUUAUCGGAAUGCGUGUUCUGGUGAACUUUUGGCUUACGGUUGUGAUGUUGUGUUGUUGUGUUUGCAAUUGGUCUGCGAUUCAGACCAUGGUAGCAAAGCUACCUUUUUUCACUUCCUGUACAUUUACCCUGUCUGUCCAUAGUGAUUAAUGUAGCACCGCCUAAUUGCGGUGCUUUUUUUU
B3: SibD (structured_RNA)
RNA: ACAAGGGUGAGGGAGGAUUUCUCCCCCCUCUGAUUGGCUGUUAAUAAGCUGCGAAACUUACGAGUAACAACACAAUCAGUAUGAUGACGAGCUUCAUCAUAACCCUUUCCUUCUGUAAGGCCCCCUUCUUCGGGAGGGGCUUU
B4: MicL-S (structured_RNA)
RNA: AUUUUUACCGUUGCAUCAUGUCGCCCAAUAUGAUGCUUGCUCGUACCAGGCCCCUGCAAUUUCAACAGGGGCCUUUUUUU
B5: GlmZ (structured_RNA)
RNA: GUAGAUGCUCAUUCCAUCUCUUAUGUUCGCCUUAGUGCCUCAUAAACUCCGGAAUGACGCAGAGCCGUUUACGGUGCUUAUCGUCCACUGACAGAUGUCGCUUAUGCCUCAUCAGACACCAUGGACACAACGUUGAGUGAAGCACCCACUUGUUGUCAUACAGACCUGUUUUAACGCCUGCUCCGUAAUAAGAGCAGGCGUUUUUUU
B6: DsrA (structured_RNA)
RNA: AACACAUCAGAUUUCCUGGUGUAACGAAUUUUUUAAGUGCUUCUUGCUUAAGCAAGUUUCAUCCCGACCCCCUCAGGGUCGGGAUUU
B7: SibA (structured_RNA)
RNA: GUGAGGGUUAGGGAGAGGUUUCCCCCUCCCCCUGGUGUUCUUAGUAAGCCUGGAAGCUAAUCACUAAGAGUAUCACCAGUAUGAUGACGUGCUUCAUCAUAACCCUUUCCUUAUUAAAAGCCCUCUUCUCCGGGAGAGGCUUU
B8: SgrS (structured_RNA)
RNA: GAUGAAGCAAGGGGGUGCCCCAUGCGUCAGUUUUAUCAGCACUAUUUUACCGCGACAGCGAAGUUGUGCUGGUUGCGUUGGUUAAGCGUCCCACAACGAUUAACCAUGCUUGAAGGACUGAUGCAGUGGGAUGACCGCAAUUCUGAAAGUUGACUUGCCUGCAUCAUGUGUGACUGAGUAUUGGUGUAAAAUCACCCGCCAGCAGAUUAUACCUGCUGGUUUUUUUU
B9: McaS (structured_RNA)
RNA: ACCGGCGCAGAGGAGACAAUGCCGGAUUUAAGACGCGGAUGCACUGCUGUGUGUACUGUAGAGUCUGGCGGAUGUCGACAGACUCUAUUUUUU
B10: GadY (structured_RNA)
RNA: ACUGAGAGCACAAAGUUUCCCGUGCCAACAGGGAGUGUUAUAACGGUUUAUUAGUCUGGAGACGGCAGACUAUCCUCUUCCCGGUCCCCUAUGCCGGGUUUUUUU
B11: ChiX (structured_RNA)
RNA: ACACCGUCGCUUAAAGUGACGGCAUAAUAAUAAAAAAAUGAAAUUCCUCUUUGACGGGCCAAUAGCGAUAUUGGCCAUUUUUUU
B12: Spot 42 (spf) (structured_RNA)
RNA: GUAGGGUACAGAGGUAAGAUGUUCUAUCUUUCAGACCUUUUACUUCACGUAAUCGGAUUUGGCUGAAUAUUUUAGCCGCCCCAGUCAGUAAUGACUGGGGCGUUUUUUA

Molecular target: T1, CsrA (UniProt P69913 1-61)
T1 sequence (P69913 whole entry): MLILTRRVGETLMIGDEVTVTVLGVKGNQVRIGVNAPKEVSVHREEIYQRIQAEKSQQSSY
Assay: EMSA; up to 6 uM CsrA; 10 nM denatured RNA, 0-6 uM CsrA, 0-3 uM Hfq; 1X binding buffer (10 mM Tris-HCl pH 7.5, 10 mM MgCl2, 100 mM KCl) plus CsrA dilution buffer, 11% glycerol, 20 mM
Conditions: protein: recombinant; chain copies: 2; label: internal 32P-UTP

Row | Binder | binding result
1 | B1 | no binding
2 | B2 | no binding

Molecular target: T1, CsrA
Assay: EMSA; 6 uM CsrA; 10 nM denatured RNA, 0-6 uM CsrA, 0-3 uM Hfq; 1X binding buffer (10 mM Tris-HCl pH 7.5, 10 mM MgCl2, 100 mM KCl) plus CsrA dilution buffer, 11% glycerol, 20 mM
Conditions: protein: recombinant; chain copies: 2; label: internal 32P-UTP

Row | Binder | binding result
3 | B3 | binds
4 | B4 | binds
5 | B5 | binds

Molecular target: T1, CsrA
Assay: EMSA; 3 or 6 uM CsrA; 10 nM denatured RNA, 0-6 uM CsrA, 0-3 uM Hfq; 1X binding buffer (10 mM Tris-HCl pH 7.5, 10 mM MgCl2, 100 mM KCl) plus CsrA dilution buffer, 11% glycerol, 20 mM
Conditions: protein: recombinant; chain copies: 2; label: internal 32P-UTP

Row | Binder | binding result
6 | B6 | binds
7 | B7 | binds
8 | B8 | binds
9 | B9 | binds
10 | B10 | binds
11 | B11 | binds

Same assay, conditions: protein: recombinant; chain copies: 2; label: internal 32P-UTP (EMSA)

Row | Binder | binding result
12 | B12 | binds

— article PMC10729762, “CsrA selectively modulates sRNA-mRNA regulator outcomes”
